According to publication PMC3326539 (The Journal of biological chemistry, 2005):

What was measured:
crystal structure = biological target: the molecule itself; experiment: crystal structure
[1] = biological target: T1, ArnA C-terminal decarboxylase domain (T316M to S660) (E. coli, UniProt P77398 316-660, T316M); experiment: SEC
T1 sequence (looked up): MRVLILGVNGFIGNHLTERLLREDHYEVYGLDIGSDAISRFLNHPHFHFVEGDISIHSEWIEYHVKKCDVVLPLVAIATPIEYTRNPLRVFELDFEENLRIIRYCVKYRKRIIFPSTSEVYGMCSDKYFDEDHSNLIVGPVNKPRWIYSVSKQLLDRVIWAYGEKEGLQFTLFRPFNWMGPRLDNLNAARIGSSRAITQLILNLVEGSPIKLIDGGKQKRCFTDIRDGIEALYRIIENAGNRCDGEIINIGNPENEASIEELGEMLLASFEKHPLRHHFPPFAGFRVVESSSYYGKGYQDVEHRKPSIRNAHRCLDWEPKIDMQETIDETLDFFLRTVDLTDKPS

- Kd [1]: > 5 mM
B1: ArnA N-terminal formyltransferase domain (residues M1 to N305) (domain or fragment, E. coli, UniProt P77398 1-305, looked up)
chain: MKTVVFAYHDMGCLGIEALLAAGYEISAIFTHTDNPGEKAFYGSVARLAAERGIPVYAPDNVNHPLWVERIAQLSPDVIFSFYYRHLIYDEILQLAPAGAFNLHGSLLPKYRGRAPLNWVLVNGETETGVTLHRMVKRADAGAIVAQLRIAIAPDDIAITLHHKLCHAARQLLEQTLPAIKHGNILEIAQRENEATCFGRRTPDDSFLEWHKPASVLHNMVRAVADPWPGAFSYVGNQKFTVWSSRVHPHASKAQPGSVISVAPLLIACGDGALEIVTGQAGDGITMQGSQLAQTLGLVQGSRLN
- binding result (crystal structure): binds
